One assay concerns the target 18AKF20-->TEG. The assay can be described thus: SPR, ProteOn XPR36, 25 C: mAb captured on anti-Fc surface, ST2L-D1D2 (HH-ST2L) wild type or variant injected, 1:1 model. (In general: In SPR one partner is held on a chip, and binding of the other changes the refractive index at the surface.)
Assay [1] has as its target T1, human ST2L extracellular domain with C-terminal His6 tag (human, UniProt Q01638 19-328).
T1 construct: also called huST2L-ECD; ST2L-ECD
T1 sequence: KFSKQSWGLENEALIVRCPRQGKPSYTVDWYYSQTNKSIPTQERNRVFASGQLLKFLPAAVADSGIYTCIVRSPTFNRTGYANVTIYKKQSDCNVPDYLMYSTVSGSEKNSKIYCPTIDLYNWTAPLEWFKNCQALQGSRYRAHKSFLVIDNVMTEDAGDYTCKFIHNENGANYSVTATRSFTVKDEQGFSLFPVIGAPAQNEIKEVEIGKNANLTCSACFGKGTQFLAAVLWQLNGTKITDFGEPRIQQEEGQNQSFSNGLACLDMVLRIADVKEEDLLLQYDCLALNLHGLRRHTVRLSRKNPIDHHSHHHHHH
The assay is described as follows: SPR, captured mAb, ST2L-ECD analyte.

Assay [2] concerns the target T2, cynomolgus ST2L extracellular domain with C-terminal His6 tag (Macaca fascicularis (cyno), UniProt Q01638 19-321 (human entry)).
T2 construct: also called cynoST2L-ECD; cyno ST2L
T2 chain: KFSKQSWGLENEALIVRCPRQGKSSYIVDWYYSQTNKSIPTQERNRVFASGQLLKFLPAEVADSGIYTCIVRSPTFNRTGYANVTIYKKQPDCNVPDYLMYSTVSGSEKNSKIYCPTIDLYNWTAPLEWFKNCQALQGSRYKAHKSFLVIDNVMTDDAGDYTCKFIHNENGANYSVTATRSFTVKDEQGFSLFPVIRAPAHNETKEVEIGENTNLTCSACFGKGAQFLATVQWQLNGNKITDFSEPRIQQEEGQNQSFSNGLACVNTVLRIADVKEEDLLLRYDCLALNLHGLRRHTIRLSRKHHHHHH
The assay can be described thus: SPR, captured mAb, ST2L-ECD analyte.

The next assay deals with T3, human ST2L on cells (human, UniProt Q01638 19-556).
T3 sequence: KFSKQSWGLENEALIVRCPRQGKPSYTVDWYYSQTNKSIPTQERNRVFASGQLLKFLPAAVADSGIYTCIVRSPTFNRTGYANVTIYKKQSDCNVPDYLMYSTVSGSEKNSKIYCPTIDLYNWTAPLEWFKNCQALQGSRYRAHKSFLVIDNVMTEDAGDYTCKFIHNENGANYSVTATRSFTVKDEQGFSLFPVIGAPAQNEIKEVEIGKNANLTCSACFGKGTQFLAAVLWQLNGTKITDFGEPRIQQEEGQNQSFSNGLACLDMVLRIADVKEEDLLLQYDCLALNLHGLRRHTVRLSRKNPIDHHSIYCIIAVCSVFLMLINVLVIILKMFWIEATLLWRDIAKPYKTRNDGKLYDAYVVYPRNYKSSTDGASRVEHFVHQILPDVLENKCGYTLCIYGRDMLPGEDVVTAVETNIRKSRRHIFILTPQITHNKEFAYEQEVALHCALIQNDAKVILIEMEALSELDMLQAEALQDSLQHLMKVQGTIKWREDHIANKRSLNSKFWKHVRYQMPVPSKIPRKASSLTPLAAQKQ
The assay is described as follows: cell-based or functional assay.

The target in assay [3] is T1, human ST2L extracellular domain with …. The assay is described as follows: SPR, captured mAb, ST2L-ECD analyte. As for the experimental part: (§1) The interactions of anti-ST2L antibodies with His₆-tagged human ST2L-ECD and His₆-tagged cyno ST2L-ECD were studied by ProteOn using a ProteOn XPR36 at 25° C. A biosensor surface was prepared by coupling goat anti-human IgG Fcγ fragment specific antibody (Ab) to the surface of a GLC sensor chip using the manufacturer instructions for amine-coupling chemistry. The coupling buffer was 10 mM sodium acetate, pH 4.5. The goat anti-human IgG Fcγ (about 4500 response units) was immobilized in the horizontal orientation. The anti-ST2L antibodies were provided purified, or in crude supernatants. In either case these antibodies were diluted in PRB (PBS pH 7.4, supplemented with, 3 mM EDTA, and 0.005% Tween 20) to a concentration of about 0.5 μg/mL. The antibodies were captured (60-130 RU) in the vertical orientation onto the anti-human Fcγ antibody-modified GLC chip. Capture of anti-ST2L mAbs was followed by injection of huST2L ECD in solution (0.024 to 15 nM in 5-fold dilutions) or cynoST2L ECD in solution (0.020-5 nM in 4-fold dilutions) in the horizontal orientation. The association was monitored for 4 minutes in all experiments (200 μL injected at 50 μL/min). The dissociation was monitored for 30 minutes. Regeneration of the sensor surface was obtained with three 15 sec pulses of 10 mM glycine pH 1.5. The data were fit using the ProteOn software and using a 1:1 binding model with mass transfer.
The source holds these as a separate data set.

Assay [4] deals with T2, cynomolgus ST2L extracellular domain …. The assay can be described thus: SPR, captured mAb, ST2L-ECD analyte. On the procedure: as §1
Assay [5] has as its target T1, human ST2L extracellular domain with …. The assay can be described thus: RLB ELISA, inhibition of biotin-IL-33 binding to coated huST2L-ECD. For orientation: ELISA stands for enzyme-linked immunosorbent assay.
The target is the same in assay [6]. The assay can be described thus: MSD electrochemiluminescence competition assay on plate-coated ST2L-ECD; unlabeled antibody titrated against 30 nM sulfo-tag labeled C2244 Fab. On the procedure: Competition binding assays were performed to evaluate different binding epitope groups for anti-ST2L mAbs. 5 μl (10 μg/ml) of ST2L-ECD protein was coated on MSD HighBind plate (Meso Scale Discovery, Gaithersburg, Md.) per well for 2 hr at room temperature. One-hundred and fifty microliters of 5% MSD Blocker A buffer (Meso Scale Discovery, Gaithersburg, Md.) was added to each well and incubated for 2 hr at room temperature. Plates were washed three times with 0.1 M HEPES buffer, pH 7.4, followed by the addition of the mixture of the MSD fluorescence dye (sulfo tag, NHS ester) labeled individual anti-ST2L antibody with different competitors. Labeled antibody, 10 or 30 nM, was incubated with increasing concentrations of competitor antibodies, from 1 nM to 2 or 5 μM, and then added to the designated wells in a volume of 25 μL mixture. After 2-hour incubation with gentle shaking at room temperature, plates were washed 3 times with 0.1M HEPES buffer (pH 7.4). MSD Read Buffer T was diluted with distilled water (4-fold) and dispensed at a volume of 150 μL/well and analyzed with a SECTOR Imager 6000.

Substitutions are numbered along the chain they refer to. Where two headings read alike, the source gives them in different places.

B1: STLM208 (antibody, V domains shown)
VH: EVQLLESGGGLVQPGGSLRLSCAASGFTFSIYDMIWVRQAPGKGLEWVSSIRGEGGGTYYADSVKGRFTISRDNSKNTLYLQMNSLRAEDTAVYYCARDPWSTEGSFFVLDYWGQGTLVTVSS
VL: EIVLTQSPATLSLSPGERATLSCRASQSVDDDLAWYQQKPGQAPRLLIYDASNRATGIPARFSGSGSGTDFTLTISSLEPEDFAVYYCQQYITAPLTFGQGTKVEIK
A word on the Kd: it is the constant that tells how readily two partners part at equilibrium. A high value points to lower affinity. In general, koff refers to the first-order rate constant of dissociation. In general, kon refers to the second-order rate constant of association. For B1, in the assay with 18AKF20-->TEG, the Kd was 0.0193 nM, the off-rate constant (koff) was determined as 0.000229 s⁻¹ and the on-rate constant (kon) came to 1.3e+07 M⁻¹ s⁻¹.

B2: ST2M50 (antibody, V domains shown)
VH: EVQLVQSGAEVKKPGESLKISCKGSGYSFTSYWIGWVRQMPGKGLEWMGIIYPGDSYTRYSPSFQGQVTISADKSISTAYLQWSSLKASDTAMYYCARLSGRFDYWGQGTLVTVSS
VL: B1 VL with D30S, D31N, D32A, D50F, Y91F, I92F, T93N, A94W, L96I
In assay [1], B2 yielded a Kd of 0.045 nM, an off-rate constant (koff) of 5.1e-05 s⁻¹ and a kon of 1.15e+06 M⁻¹ s⁻¹. In assay [2], the Kd was 0.124 nM, the koff was 0.00249 s⁻¹ and the kon was 2.01e+07 M⁻¹ s⁻¹.

B3: STLM206 (antibody, V domains shown)
VH: B1 VH with S50T, G57S
VL: B1 VL
notes: IgG; VH3-23 / Vk-L6 frameworks
For orientation: IC50 means the midpoint of a concentration-inhibition curve. A lower IC50 goes with greater potency. B3: the “RGA IC50” value with human ST2L on cells came to 0.67 µg/mL. In assay [3], the dissociation constant Kd came out at 0.025 nM, the off-rate constant (koff) was found to be 0.00016 s⁻¹ and the on-rate (kon) stood at 6.39e+06 M⁻¹ s⁻¹. In assay [4], this molecule came in with a Kd of 0.006 nM, a koff of 0.000583 s⁻¹ and an on-rate constant (kon) of 9.4e+07 M⁻¹ s⁻¹. For the same molecule, in assay [5], the IC50 worked out at 0.4 µg/mL.

B4: STLM15 (antibody, human IgG2, V domains shown)
VH: EVQLQESGPGLVKPSQSLSLTCTVTGFSITSDYAWNWIRQFPGSKLEWMGFISYSGDTSFNPSLKSRISVTRDTSKNQFFLQLNSVTTEDTATYYCASYDGYSFDYWGQGTTLTVSS
VL: DIVLTQSPASLAISLGQRATISCRASKSVSTSGSSYMFWYQQKPGQPPKLLIYLASNLESGVPARFSGSGSGTDFTLNIHPVEEEDAAAYYCQHSREIPYTFGGGTKLEIK
notes: Mouse hybridoma C2244 V regions cloned into human IgG2 background = STLM15; also called C2244; C2244/STLM15
Take B4: in assay [6], the “IC50 (read off the curve)” value is roughly 100 nM.

Values taken from patent US20130336980A1 (Janssen / Centocor, published 2013).
